# In article doi:10.1101/2024.05.27.596032 (bioRxiv, 2024):
# Several values for one entry are separate records, joined by “and”; a condition that tells them apart may be missing. Equal entries are not always repeated. Where two headings read alike, the source gives them in different places.
# B1: Streptococcus pneumoniae NrdR (natural protein, Streptococcus pneumoniae TIGR4, UniProt P67318 1-157, looked up)
# chain: MRCPKCGATKSSVIDSRQAEEGNTIRRRRECDECQHRFTTYERVEERTLVVVKKDGTREQFSRDKIFNGIIRSAQKRPVSSDEINMVVNRIEQKLRGRNENEIQSEDIGSLVMEELAELDEITYVRFASVYRSFKDVSELESLLQQITQSSKKKKER
# Assays:
# Test in all cases: SEC
# [1] = target: Listeria monocytogenes NrdR (Listeria monocytogenes serotype 1/2a str, S10403S) (UniProt B8DHI6)
# [2] = target: Listeria monocytogenes NrdR (Listeria monocytogenes serotype 1/2a str, S10403S) (UniProt B8DHI6); remark: listed apart in the source
# [3] = target: Listeria monocytogenes NrdR (Listeria monocytogenes serotype 1/2a str, S10403S) (UniProt B8DHI6); remark: listed apart in the source
# [4] = target: Listeria monocytogenes NrdR (Listeria monocytogenes serotype 1/2a str, S10403S) (UniProt B8DHI6); remark: listed apart in the source
# [5] = target: Listeria monocytogenes NrdR (Listeria monocytogenes serotype 1/2a str, S10403S) (UniProt B8DHI6); remark: listed apart in the source
# [6] = target: Listeria monocytogenes NrdR (Listeria monocytogenes serotype 1/2a str, S10403S) (UniProt B8DHI6); remark: listed apart in the source
# [7] = target: the molecule itself
Molecule,stoichiometry N [1],stoichiometry N [2],stoichiometry N [3],stoichiometry N [4],stoichiometry N [5],stoichiometry N [6],stoichiometry N [7]
Listeria monocytogenes NrdR (from UniProt B8DHI6 1-154) (natural protein),4,4,2,4,8,4,
B1,,,,,,,2 and 4
